Results reported in US20240309103A1 (Regeneron, published 2024).

How the values were obtained:
[1] = target: T1, human NPR1 extracellular domain expressed with a C-terminal mouse IgG2a (hNPR1-mFc) (human); assay: SPR, mAb captured, 25 C; 25 C
T1 construct: also called hNPR1-Fc; human NPR1 dimer
T1 chain: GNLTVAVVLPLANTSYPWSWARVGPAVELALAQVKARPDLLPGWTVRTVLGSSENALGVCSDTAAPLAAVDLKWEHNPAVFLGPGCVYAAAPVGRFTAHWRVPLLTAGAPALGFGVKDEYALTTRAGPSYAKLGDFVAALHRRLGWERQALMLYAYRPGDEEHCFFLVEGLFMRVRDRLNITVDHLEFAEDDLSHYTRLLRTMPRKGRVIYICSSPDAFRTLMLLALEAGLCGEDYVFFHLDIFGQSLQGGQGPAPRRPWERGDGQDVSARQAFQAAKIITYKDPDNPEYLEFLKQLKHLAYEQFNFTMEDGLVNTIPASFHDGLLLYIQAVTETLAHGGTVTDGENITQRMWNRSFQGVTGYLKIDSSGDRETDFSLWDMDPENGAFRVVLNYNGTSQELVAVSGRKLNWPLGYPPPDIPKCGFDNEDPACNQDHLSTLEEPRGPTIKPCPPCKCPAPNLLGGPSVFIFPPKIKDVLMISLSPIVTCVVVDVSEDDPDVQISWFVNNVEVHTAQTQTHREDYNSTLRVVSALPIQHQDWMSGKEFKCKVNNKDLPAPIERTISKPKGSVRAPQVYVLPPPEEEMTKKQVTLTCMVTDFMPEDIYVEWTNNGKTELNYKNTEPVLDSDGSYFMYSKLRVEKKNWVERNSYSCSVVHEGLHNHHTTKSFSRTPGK
Method: (§1) Equilibrium dissociation constant (KD) for different NPR1 reagents binding to purified anti-NPR1 monoclonal antibodies (mAbs) were determined using a real-time surface plasmon resonance based Biacore 4000 biosensor. All binding studies were performed in 10 mM HEPES, 150 mM NaCl, 3 mM EDTA, and 0.05% v/v Surfactant Tween-20, pH 7.4 (HBS-ET) running buffer at 25° C. and 37° C. The Biacore CM5 sensor chip surface was first derivatized by amine coupling with either mouse anti-human Fc specific mAb (GE Healthcare, #BR100839) or goat anti-human Fcy specific polyclonal antibody (Jackson ImmunoResearch Laboratories, #BR-1008-39) to capture anti-NPR1 mAbs.

[2] = target: T2, human NPR1 extracellular domain expressed with a C-terminal myc-myc-hexahistidine (hNPR1-MMH) (human, UniProt P16066 33-473); assay: SPR, mAb captured, 25 C
T2 construct: also called hNPR.mmh; monomeric human NPR1
Summary of the method: (§2)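 Equilibrium dissociation constants come from surface plasmon resonance, with the NPR1 reagent flowed over captured antibody. The capture layer was anti-human Fc (monoclonal or goat polyclonal), amine-coupled onto a CM5 chip. Buffer was HEPES-buffered saline with EDTA and 0.05% Tween-20, pH 7.4.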
Target sequence in this assay (P16066 other isoform, or with tags, fused parts or gaps): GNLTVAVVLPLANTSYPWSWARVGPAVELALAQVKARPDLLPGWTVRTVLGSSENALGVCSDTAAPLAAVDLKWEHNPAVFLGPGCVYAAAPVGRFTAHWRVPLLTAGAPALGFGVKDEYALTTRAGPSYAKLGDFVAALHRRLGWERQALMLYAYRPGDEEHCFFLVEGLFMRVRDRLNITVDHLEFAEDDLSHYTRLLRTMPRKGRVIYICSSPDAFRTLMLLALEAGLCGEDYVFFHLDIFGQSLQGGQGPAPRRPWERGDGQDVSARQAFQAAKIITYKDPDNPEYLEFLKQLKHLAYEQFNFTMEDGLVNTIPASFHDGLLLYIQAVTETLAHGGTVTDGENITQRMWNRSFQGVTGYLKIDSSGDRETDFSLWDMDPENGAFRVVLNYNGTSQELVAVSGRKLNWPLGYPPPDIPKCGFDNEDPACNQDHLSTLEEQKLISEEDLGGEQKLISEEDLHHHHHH

[3] = target: T3, monkey NPR1 extracellular domain expressed with a C-terminal myc-myc-hexahistidine (mfNPR1-MMH) (monkey, UniProt P16066 33-473 (human entry)); assay: SPR, mAb captured, 25 C
T3 construct: also called monomeric monkey NPR1
T3 chain: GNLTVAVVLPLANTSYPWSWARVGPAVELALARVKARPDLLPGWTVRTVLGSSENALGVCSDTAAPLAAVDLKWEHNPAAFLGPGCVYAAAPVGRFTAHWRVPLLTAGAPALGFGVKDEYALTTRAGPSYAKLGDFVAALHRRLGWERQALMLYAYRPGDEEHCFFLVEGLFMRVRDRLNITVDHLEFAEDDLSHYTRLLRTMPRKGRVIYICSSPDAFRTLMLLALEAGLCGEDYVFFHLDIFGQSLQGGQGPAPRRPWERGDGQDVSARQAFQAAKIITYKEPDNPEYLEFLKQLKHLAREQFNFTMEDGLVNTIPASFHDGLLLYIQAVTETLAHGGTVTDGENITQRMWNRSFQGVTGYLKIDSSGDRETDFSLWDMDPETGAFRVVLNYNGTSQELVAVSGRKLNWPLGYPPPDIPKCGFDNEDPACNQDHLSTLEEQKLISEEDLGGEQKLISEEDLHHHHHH
Summary of the method: as §2

[4] = target: T4, mouse NPR1 extracellular domain expressed with a C-terminal myc-myc-hexahistidine (mNPR1-MMH) (mouse, UniProt P18293 29-469); assay: SPR, mAb captured, 25 C
Summary of the method: as §2

[5] = target: T5, mouse NPR1 extracellular domain expressed with a C-terminal mouse IgG2a (mNPR1-mFc) (mouse); assay: SPR, Tables 21 to 26
T5 chain: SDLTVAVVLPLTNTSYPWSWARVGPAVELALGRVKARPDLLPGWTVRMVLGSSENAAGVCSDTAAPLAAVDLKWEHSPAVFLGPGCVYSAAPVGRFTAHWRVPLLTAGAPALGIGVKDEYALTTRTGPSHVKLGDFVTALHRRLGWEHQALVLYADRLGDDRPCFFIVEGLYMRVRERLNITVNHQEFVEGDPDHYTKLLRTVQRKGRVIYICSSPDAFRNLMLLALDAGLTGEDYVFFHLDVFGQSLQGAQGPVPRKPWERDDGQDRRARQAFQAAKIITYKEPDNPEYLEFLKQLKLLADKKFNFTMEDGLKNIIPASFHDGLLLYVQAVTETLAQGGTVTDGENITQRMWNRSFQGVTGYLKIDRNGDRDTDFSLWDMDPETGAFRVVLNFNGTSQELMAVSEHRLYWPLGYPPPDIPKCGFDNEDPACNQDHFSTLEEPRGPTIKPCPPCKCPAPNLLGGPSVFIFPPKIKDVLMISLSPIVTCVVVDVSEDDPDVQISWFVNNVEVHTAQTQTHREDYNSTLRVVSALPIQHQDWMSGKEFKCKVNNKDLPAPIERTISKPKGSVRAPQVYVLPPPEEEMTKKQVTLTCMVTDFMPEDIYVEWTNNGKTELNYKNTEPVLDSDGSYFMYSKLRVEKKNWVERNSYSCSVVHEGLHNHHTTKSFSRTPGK
Method: as §1

[6] = target: T2, human NPR1 extracellular domain …; assay: SPR, mAb captured, 37 C
Summary of the method: as §2

[7] = target: T3, monkey NPR1 extracellular domain …; assay: SPR, mAb captured, 37 C
Summary of the method: as §2

[8] = target: T4, mouse NPR1 extracellular domain …; assay: SPR, mAb captured, 37 C
Summary of the method: as §2
Target sequence in this assay (P18293 other isoform, or with tags, fused parts or gaps): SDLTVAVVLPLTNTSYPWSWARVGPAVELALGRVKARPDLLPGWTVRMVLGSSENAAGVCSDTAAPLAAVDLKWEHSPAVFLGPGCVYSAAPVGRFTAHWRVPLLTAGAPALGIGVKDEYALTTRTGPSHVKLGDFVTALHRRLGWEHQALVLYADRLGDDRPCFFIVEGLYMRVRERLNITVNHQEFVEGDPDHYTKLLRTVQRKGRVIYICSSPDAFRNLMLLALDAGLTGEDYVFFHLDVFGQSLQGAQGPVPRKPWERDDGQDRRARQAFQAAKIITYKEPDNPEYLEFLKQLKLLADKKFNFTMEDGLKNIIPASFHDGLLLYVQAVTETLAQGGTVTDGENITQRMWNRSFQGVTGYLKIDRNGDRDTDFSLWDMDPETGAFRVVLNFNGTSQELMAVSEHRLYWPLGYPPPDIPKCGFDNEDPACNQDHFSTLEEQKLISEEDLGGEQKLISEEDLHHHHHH

B1: mAb25502 (antibody, V domains shown)
VH: QLQLQESGPGLVKPSETLSLTCTVSGGSISSSSYYWGWIRQPPGKGLEWIGSIYYSGSPYYIPSLKSRVTISVDTSKNQFSLKLSSVTAADTAMYYCARQGRGIARAGPFDYWGQGTLVTVSS
VL: DIQMTQSPSSLSASVGDRVTITCRASQGISNYLAWYQEKPGKVPKLLIYAASTLQSGVPSRFSGSGSGTDFTLTITSLQSEDVATYYCQKYNSAPPWTFGQGTKVEIK
Question: Which Kd [1] does the source give for B1 here?
Answer: 994 pM

Question: And the koff [1]?
Answer: 8.74e-05 s⁻¹

Question: And the kon [1]?
Answer: 87900 M⁻¹ s⁻¹

Question: And the t½ [1]?
Answer: 2.2 h

Question: What about the “100 nM Ag Bound (RU)” value [2] of the same binder?
Answer: 2 RU

Question: And the “100 nM Ag Bound (RU)” value [3]?
Answer: 3 RU

Question: Does B1 bind [3]?
Answer: no binding (tested: 100 nM)

Question: What about the “100 nM Ag Bound (RU)” value [4] of the same binder?
Answer: 0 RU

Question: Does B1 bind [4]?
Answer: no binding (tested: 100 nM)

Question: Does B1 bind [5]?
Answer: no binding

Question: And the “100 nM Ag Bound (RU)” value [6]?
Answer: 4 RU

Question: Does B1 bind [6]?
Answer: no binding (tested: 100 nM)

Question: And the “100 nM Ag Bound (RU)” value [7]?
Answer: 6 RU

Question: And the “100 nM Ag Bound (RU)” value [8]?
Answer: 0 RU
